Earlier results in publication PMC11204982.

Molecular target: CD20 (Homo sapiens) (UniProt P11836)
UniProt P11836, sequence (P11836 whole entry): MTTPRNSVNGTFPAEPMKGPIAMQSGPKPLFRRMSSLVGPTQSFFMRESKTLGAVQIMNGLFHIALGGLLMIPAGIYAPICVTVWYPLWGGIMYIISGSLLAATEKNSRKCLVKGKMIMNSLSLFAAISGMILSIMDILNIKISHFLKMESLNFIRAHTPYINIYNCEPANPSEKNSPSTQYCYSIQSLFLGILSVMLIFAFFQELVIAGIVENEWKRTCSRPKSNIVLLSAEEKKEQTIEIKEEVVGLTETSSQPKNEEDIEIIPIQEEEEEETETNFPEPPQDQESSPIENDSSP

## rituximab
  Kd: 5.2 nM
